This passage reports kcat/KM, TF-Dependent Indirect Assay results from patent US20090291890A1 (published 2009).

The target in the test is Factor X (FX) (Homo sapiens (Human)) (UniProt P00742).
Chain of Factor X (FX) (Homo sapiens (Human)) (P00742 41-488 limits assumed): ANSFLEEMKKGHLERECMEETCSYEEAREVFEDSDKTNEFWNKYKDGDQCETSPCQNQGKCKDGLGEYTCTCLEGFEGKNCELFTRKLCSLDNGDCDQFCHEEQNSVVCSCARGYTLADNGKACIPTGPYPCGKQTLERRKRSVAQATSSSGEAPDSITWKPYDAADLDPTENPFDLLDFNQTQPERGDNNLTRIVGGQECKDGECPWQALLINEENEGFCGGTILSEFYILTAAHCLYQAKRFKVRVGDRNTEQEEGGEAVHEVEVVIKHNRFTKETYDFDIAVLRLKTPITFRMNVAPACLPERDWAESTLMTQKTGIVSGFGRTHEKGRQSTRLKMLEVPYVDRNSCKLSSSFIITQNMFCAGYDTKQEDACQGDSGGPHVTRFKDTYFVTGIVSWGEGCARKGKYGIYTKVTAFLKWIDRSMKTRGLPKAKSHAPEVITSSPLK

B1: FVIIa variant Q286R/M298Q/K341Q (enzyme)
chain: ANAFLEELRPGSLERECKEEQCSFEEAREIFKDAERTKLFWISYSDGDQCASSPCQNGGSCKDQLQSYICFCLPAFEGRNCETHKDDQLICVNENGGCEQYCSDHTGTKRSCRCHEGYSLLADGVSCTPTVEYPCGKIPILEKRNASKPQGRIVGGKVCPKGECPWQVLLLVNGAQLCGGTLINTIWVVSAAHCFDKIKNWRNLIAVLGEHDLSEHDGDEQSRRVAQVIIPSTYVPGTTNHDIALLRLHQPVVLTDHVVPLCLPERTFSERTLAFVRFSLVSGWGRLLDRGATALELQVLNVPRLMTQDCLQQSRKVGDSPNITEYMFCAGYSDGSKDSCQGDSGGPHATHYRGTWYLTGIVSWGQGCATVGHFGVYTRVSQYIEWLQKLMRSEPRPGVLLRAPFP
On to B1, for which the kcat/KM, TF-Dependent Indirect Assay worked out at 3.93e+07 M⁻¹ s⁻¹.

B2: FVIIa variant T239I (enzyme)
chain: ANAFLEELRPGSLERECKEEQCSFEEAREIFKDAERTKLFWISYSDGDQCASSPCQNGGSCKDQLQSYICFCLPAFEGRNCETHKDDQLICVNENGGCEQYCSDHTGTKRSCRCHEGYSLLADGVSCTPTVEYPCGKIPILEKRNASKPQGRIVGGKVCPKGECPWQVLLLVNGAQLCGGTLINTIWVVSAAHCFDKIKNWRNLIAVLGEHDLSEHDGDEQSRRVAQVIIPSTYVPGTINHDIALLRLHQPVVLTDHVVPLCLPERTFSERTLAFVRFSLVSGWGQLLDRGATALELMVLNVPRLMTQDCLQQSRKVGDSPNITEYMFCAGYSDGSKDSCKGDSGGPHATHYRGTWYLTGIVSWGQGCATVGHFGVYTRVSQYIEWLQKLMRSEPRPGVLLRAPFP
As to B2, the kcat/KM, TF-Dependent Indirect Assay was determined as 3.5e+07 M⁻¹ s⁻¹.

B3: FVIIa variant T239V (enzyme)
chain: ANAFLEELRPGSLERECKEEQCSFEEAREIFKDAERTKLFWISYSDGDQCASSPCQNGGSCKDQLQSYICFCLPAFEGRNCETHKDDQLICVNENGGCEQYCSDHTGTKRSCRCHEGYSLLADGVSCTPTVEYPCGKIPILEKRNASKPQGRIVGGKVCPKGECPWQVLLLVNGAQLCGGTLINTIWVVSAAHCFDKIKNWRNLIAVLGEHDLSEHDGDEQSRRVAQVIIPSTYVPGTVNHDIALLRLHQPVVLTDHVVPLCLPERTFSERTLAFVRFSLVSGWGQLLDRGATALELMVLNVPRLMTQDCLQQSRKVGDSPNITEYMFCAGYSDGSKDSCKGDSGGPHATHYRGTWYLTGIVSWGQGCATVGHFGVYTRVSQYIEWLQKLMRSEPRPGVLLRAPFP
As to B3, the kcat/KM, TF-Dependent Indirect Assay is 9.57e+07 M⁻¹ s⁻¹.

B4: FVIIa variant S222A/H257A/Q286R/M298Q (enzyme)
chain: ANAFLEELRPGSLERECKEEQCSFEEAREIFKDAERTKLFWISYSDGDQCASSPCQNGGSCKDQLQSYICFCLPAFEGRNCETHKDDQLICVNENGGCEQYCSDHTGTKRSCRCHEGYSLLADGVSCTPTVEYPCGKIPILEKRNASKPQGRIVGGKVCPKGECPWQVLLLVNGAQLCGGTLINTIWVVSAAHCFDKIKNWRNLIAVLGEHDLSEHDGDEQARRVAQVIIPSTYVPGTTNHDIALLRLHQPVVLTDAVVPLCLPERTFSERTLAFVRFSLVSGWGRLLDRGATALELQVLNVPRLMTQDCLQQSRKVGDSPNITEYMFCAGYSDGSKDSCKGDSGGPHATHYRGTWYLTGIVSWGQGCATVGHFGVYTRVSQYIEWLQKLMRSEPRPGVLLRAPFP
Take B4: the kcat/KM, TF-Dependent Indirect Assay is 2e+08 M⁻¹ s⁻¹.

B5: FVIIa variant T239S (enzyme)
chain: ANAFLEELRPGSLERECKEEQCSFEEAREIFKDAERTKLFWISYSDGDQCASSPCQNGGSCKDQLQSYICFCLPAFEGRNCETHKDDQLICVNENGGCEQYCSDHTGTKRSCRCHEGYSLLADGVSCTPTVEYPCGKIPILEKRNASKPQGRIVGGKVCPKGECPWQVLLLVNGAQLCGGTLINTIWVVSAAHCFDKIKNWRNLIAVLGEHDLSEHDGDEQSRRVAQVIIPSTYVPGTSNHDIALLRLHQPVVLTDHVVPLCLPERTFSERTLAFVRFSLVSGWGQLLDRGATALELMVLNVPRLMTQDCLQQSRKVGDSPNITEYMFCAGYSDGSKDSCKGDSGGPHATHYRGTWYLTGIVSWGQGCATVGHFGVYTRVSQYIEWLQKLMRSEPRPGVLLRAPFP
Turning to B5, the kcat/KM, TF-Dependent Indirect Assay was found to be 1.74e+07 M⁻¹ s⁻¹.

B6: FVIIa variant Q286R/M298Q/K199E (enzyme)
chain: ANAFLEELRPGSLERECKEEQCSFEEAREIFKDAERTKLFWISYSDGDQCASSPCQNGGSCKDQLQSYICFCLPAFEGRNCETHKDDQLICVNENGGCEQYCSDHTGTKRSCRCHEGYSLLADGVSCTPTVEYPCGKIPILEKRNASKPQGRIVGGKVCPKGECPWQVLLLVNGAQLCGGTLINTIWVVSAAHCFDKIENWRNLIAVLGEHDLSEHDGDEQSRRVAQVIIPSTYVPGTTNHDIALLRLHQPVVLTDHVVPLCLPERTFSERTLAFVRFSLVSGWGRLLDRGATALELQVLNVPRLMTQDCLQQSRKVGDSPNITEYMFCAGYSDGSKDSCKGDSGGPHATHYRGTWYLTGIVSWGQGCATVGHFGVYTRVSQYIEWLQKLMRSEPRPGVLLRAPFP
On to B6, for which the kcat/KM, TF-Dependent Indirect Assay came to 7.74e+07 M⁻¹ s⁻¹.

B7: FVIIa variant S222A/H257A/M298Q (enzyme)
chain: ANAFLEELRPGSLERECKEEQCSFEEAREIFKDAERTKLFWISYSDGDQCASSPCQNGGSCKDQLQSYICFCLPAFEGRNCETHKDDQLICVNENGGCEQYCSDHTGTKRSCRCHEGYSLLADGVSCTPTVEYPCGKIPILEKRNASKPQGRIVGGKVCPKGECPWQVLLLVNGAQLCGGTLINTIWVVSAAHCFDKIKNWRNLIAVLGEHDLSEHDGDEQARRVAQVIIPSTYVPGTTNHDIALLRLHQPVVLTDAVVPLCLPERTFSERTLAFVRFSLVSGWGQLLDRGATALELQVLNVPRLMTQDCLQQSRKVGDSPNITEYMFCAGYSDGSKDSCKGDSGGPHATHYRGTWYLTGIVSWGQGCATVGHFGVYTRVSQYIEWLQKLMRSEPRPGVLLRAPFP
Consider B7, for which the kcat/KM, TF-Dependent Indirect Assay was 7.75e+07 M⁻¹ s⁻¹.

B8: FVIIa variant T239Q (enzyme)
chain: ANAFLEELRPGSLERECKEEQCSFEEAREIFKDAERTKLFWISYSDGDQCASSPCQNGGSCKDQLQSYICFCLPAFEGRNCETHKDDQLICVNENGGCEQYCSDHTGTKRSCRCHEGYSLLADGVSCTPTVEYPCGKIPILEKRNASKPQGRIVGGKVCPKGECPWQVLLLVNGAQLCGGTLINTIWVVSAAHCFDKIKNWRNLIAVLGEHDLSEHDGDEQSRRVAQVIIPSTYVPGTQNHDIALLRLHQPVVLTDHVVPLCLPERTFSERTLAFVRFSLVSGWGQLLDRGATALELMVLNVPRLMTQDCLQQSRKVGDSPNITEYMFCAGYSDGSKDSCKGDSGGPHATHYRGTWYLTGIVSWGQGCATVGHFGVYTRVSQYIEWLQKLMRSEPRPGVLLRAPFP
Consider B8, for which the kcat/KM, TF-Dependent Indirect Assay was determined as 1.74e+07 M⁻¹ s⁻¹.

B9: FVIIa variant T239H (enzyme)
chain: ANAFLEELRPGSLERECKEEQCSFEEAREIFKDAERTKLFWISYSDGDQCASSPCQNGGSCKDQLQSYICFCLPAFEGRNCETHKDDQLICVNENGGCEQYCSDHTGTKRSCRCHEGYSLLADGVSCTPTVEYPCGKIPILEKRNASKPQGRIVGGKVCPKGECPWQVLLLVNGAQLCGGTLINTIWVVSAAHCFDKIKNWRNLIAVLGEHDLSEHDGDEQSRRVAQVIIPSTYVPGTHNHDIALLRLHQPVVLTDHVVPLCLPERTFSERTLAFVRFSLVSGWGQLLDRGATALELMVLNVPRLMTQDCLQQSRKVGDSPNITEYMFCAGYSDGSKDSCKGDSGGPHATHYRGTWYLTGIVSWGQGCATVGHFGVYTRVSQYIEWLQKLMRSEPRPGVLLRAPFP
Regarding B9, the kcat/KM, TF-Dependent Indirect Assay amounted to 9.9e+06 M⁻¹ s⁻¹.

B10: FVIIa variant T239L (enzyme)
chain: ANAFLEELRPGSLERECKEEQCSFEEAREIFKDAERTKLFWISYSDGDQCASSPCQNGGSCKDQLQSYICFCLPAFEGRNCETHKDDQLICVNENGGCEQYCSDHTGTKRSCRCHEGYSLLADGVSCTPTVEYPCGKIPILEKRNASKPQGRIVGGKVCPKGECPWQVLLLVNGAQLCGGTLINTIWVVSAAHCFDKIKNWRNLIAVLGEHDLSEHDGDEQSRRVAQVIIPSTYVPGTLNHDIALLRLHQPVVLTDHVVPLCLPERTFSERTLAFVRFSLVSGWGQLLDRGATALELMVLNVPRLMTQDCLQQSRKVGDSPNITEYMFCAGYSDGSKDSCKGDSGGPHATHYRGTWYLTGIVSWGQGCATVGHFGVYTRVSQYIEWLQKLMRSEPRPGVLLRAPFP
Turning to B10, the kcat/KM, TF-Dependent Indirect Assay was found to be 3.77e+07 M⁻¹ s⁻¹.

B11: FVIIa variant Q286R/S222A/Gla Swap FIX (enzyme)
chain: YNSGKLEEFVQGNLERECMEEKCSFEEAREVFENTERTTEFWKQYSDGDQCASSPCQNGGSCKDQLQSYICFCLPAFEGRNCETHKDDQLICVNENGGCEQYCSDHTGTKRSCRCHEGYSLLADGVSCTPTVEYPCGKIPILEKRNASKPQGRIVGGKVCPKGECPWQVLLLVNGAQLCGGTLINTIWVVSAAHCFDKIKNWRNLIAVLGEHDLSEHDGDEQARRVAQVIIPSTYVPGTTNHDIALLRLHQPVVLTDHVVPLCLPERTFSERTLAFVRFSLVSGWGRLLDRGATALELMVLNVPRLMTQDCLQQSRKVGDSPNITEYMFCAGYSDGSKDSCKGDSGGPHATHYRGTWYLTGIVSWGQGCATVGHFGVYTRVSQYIEWLQKLMRSEPRPGVLLRAPFP
On to B11, for which the kcat/KM, TF-Dependent Indirect Assay turned out to be 1.61e+08 M⁻¹ s⁻¹.

B12: FVIIa variant Q286R/S222A/H257A/Gla Swap FIX (enzyme)
chain: YNSGKLEEFVQGNLERECMEEKCSFEEAREVFENTERTTEFWKQYSDGDQCASSPCQNGGSCKDQLQSYICFCLPAFEGRNCETHKDDQLICVNENGGCEQYCSDHTGTKRSCRCHEGYSLLADGVSCTPTVEYPCGKIPILEKRNASKPQGRIVGGKVCPKGECPWQVLLLVNGAQLCGGTLINTIWVVSAAHCFDKIKNWRNLIAVLGEHDLSEHDGDEQARRVAQVIIPSTYVPGTTNHDIALLRLHQPVVLTDAVVPLCLPERTFSERTLAFVRFSLVSGWGRLLDRGATALELMVLNVPRLMTQDCLQQSRKVGDSPNITEYMFCAGYSDGSKDSCKGDSGGPHATHYRGTWYLTGIVSWGQGCATVGHFGVYTRVSQYIEWLQKLMRSEPRPGVLLRAPFP
Take B12: the kcat/KM, TF-Dependent Indirect Assay turned out to be 7.75e+07 M⁻¹ s⁻¹.

B13: FVIIa variant Q286R/H257A/Gla Swap FIX (enzyme)
chain: YNSGKLEEFVQGNLERECMEEKCSFEEAREVFENTERTTEFWKQYSDGDQCASSPCQNGGSCKDQLQSYICFCLPAFEGRNCETHKDDQLICVNENGGCEQYCSDHTGTKRSCRCHEGYSLLADGVSCTPTVEYPCGKIPILEKRNASKPQGRIVGGKVCPKGECPWQVLLLVNGAQLCGGTLINTIWVVSAAHCFDKIKNWRNLIAVLGEHDLSEHDGDEQSRRVAQVIIPSTYVPGTTNHDIALLRLHQPVVLTDAVVPLCLPERTFSERTLAFVRFSLVSGWGRLLDRGATALELMVLNVPRLMTQDCLQQSRKVGDSPNITEYMFCAGYSDGSKDSCKGDSGGPHATHYRGTWYLTGIVSWGQGCATVGHFGVYTRVSQYIEWLQKLMRSEPRPGVLLRAPFP
Regarding B13, the kcat/KM, TF-Dependent Indirect Assay is 8.09e+07 M⁻¹ s⁻¹.
